Results on 7 molecules are retold here after patent publication EP4663654A1 (Hangzhou Sciwind Biosciences Co., Ltd., dated 2025).

The chains are these.
T1: human amylin receptor (AMY3) on CHO-K1/Ga15/AMY3 amylin receptor/CRE-luc cells (human, UniProt P30988 25-474; O60896 24-148)
T1 sequence (looked up) 1: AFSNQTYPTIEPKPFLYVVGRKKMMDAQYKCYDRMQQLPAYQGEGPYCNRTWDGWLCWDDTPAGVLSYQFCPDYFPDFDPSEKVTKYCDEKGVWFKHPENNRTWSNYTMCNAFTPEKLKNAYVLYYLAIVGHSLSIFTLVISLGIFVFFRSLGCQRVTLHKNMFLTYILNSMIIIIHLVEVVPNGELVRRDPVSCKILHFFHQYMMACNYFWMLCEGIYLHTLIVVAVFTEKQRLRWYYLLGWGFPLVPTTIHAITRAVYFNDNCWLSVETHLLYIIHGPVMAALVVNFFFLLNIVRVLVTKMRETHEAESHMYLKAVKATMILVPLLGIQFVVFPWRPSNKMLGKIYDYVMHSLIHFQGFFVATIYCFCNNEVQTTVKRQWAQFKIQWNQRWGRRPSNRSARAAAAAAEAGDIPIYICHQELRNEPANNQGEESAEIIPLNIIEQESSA
T1 sequence (looked up) 2: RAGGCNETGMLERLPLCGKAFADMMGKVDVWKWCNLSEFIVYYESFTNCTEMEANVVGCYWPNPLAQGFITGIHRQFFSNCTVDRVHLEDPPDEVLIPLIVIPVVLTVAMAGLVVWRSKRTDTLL

B1: polypeptide derivative M23 (peptide)
peptide: {C16 diacid-γGlu}-ASQLSTAATQRLADFLRHFTDRDRDILPPTNVGSNTP-NH2
SMILES: CC[C@H](C)[C@H](NC(=O)[C@H](CC(=O)O)NC(=O)[C@H](CCCNC(=N)N)NC(=O)[C@H](CC(=O)O)NC(=O)[C@H](CCCNC(=N)N)NC(=O)[C@H](CC(=O)O)NC(=O)[C@@H](NC(=O)[C@H](Cc1ccccc1)NC(=O)[C@H](Cc1c[nH]cn1)NC(=O)[C@H](CCCNC(=N)N)NC(=O)[C@H](CC(C)C)NC(=O)[C@H](Cc1ccccc1)NC(=O)[C@H](CC(=O)O)NC(=O)[C@H](C)NC(=O)[C@H](CC(C)C)NC(=O)[C@H](CCCNC(=N)N)NC(=O)[C@H](CCC(N)=O)NC(=O)[C@@H](NC(=O)[C@H](C)NC(=O)[C@H](C)NC(=O)[C@@H](NC(=O)[C@H](CO)NC(=O)[C@H](CC(C)C)NC(=O)[C@H](CCC(N)=O)NC(=O)[C@H](CO)NC(=O)[C@H](C)NC(=O)CC[C@H](NC(=O)CCCCCCCCCCCCCCC(=O)O)C(=O)O)[C@@H](C)O)[C@@H](C)O)[C@@H](C)O)C(=O)N[C@@H](CC(C)C)C(=O)N1CCC[C@H]1C(=O)N1CCC[C@H]1C(=O)N[C@H](C(=O)N[C@@H](CC(N)=O)C(=O)N[C@H](C(=O)NCC(=O)N[C@@H](CO)C(=O)N[C@@H](CC(N)=O)C(=O)N[C@H](C(=O)N1CCC[C@H]1C(N)=O)[C@@H](C)O)C(C)C)[C@@H](C)O
B2: polypeptide derivative M19 (peptide)
peptide: {C20 diacid}-D[AEEA][AEEA]ASQLSTAATQRLADFLRHFTDRDRDILPPTNVGSNTP-NH2
SMILES: CC[C@H](C)[C@H](NC(=O)[C@H](CC(=O)O)NC(=O)[C@H](CCCNC(=N)N)NC(=O)[C@H](CC(=O)O)NC(=O)[C@H](CCCNC(=N)N)NC(=O)[C@H](CC(=O)O)NC(=O)[C@@H](NC(=O)[C@H](Cc1ccccc1)NC(=O)[C@H](Cc1c[nH]cn1)NC(=O)[C@H](CCCNC(=N)N)NC(=O)[C@H](CC(C)C)NC(=O)[C@H](Cc1ccccc1)NC(=O)[C@H](CC(=O)O)NC(=O)[C@H](C)NC(=O)[C@H](CC(C)C)NC(=O)[C@H](CCCNC(=N)N)NC(=O)[C@H](CCC(N)=O)NC(=O)[C@@H](NC(=O)[C@H](C)NC(=O)[C@H](C)NC(=O)[C@@H](NC(=O)[C@H](CO)NC(=O)[C@H](CC(C)C)NC(=O)[C@H](CCC(N)=O)NC(=O)[C@H](CO)NC(=O)[C@H](C)NC(=O)COCCOCCNC(=O)COCCOCCNC(=O)[C@H](CC(=O)O)NC(=O)CCCCCCCCCCCCCCCCCCC(=O)O)[C@@H](C)O)[C@@H](C)O)[C@@H](C)O)C(=O)N[C@@H](CC(C)C)C(=O)N1CCC[C@H]1C(=O)N1CCC[C@H]1C(=O)N[C@H](C(=O)N[C@@H](CC(N)=O)C(=O)N[C@H](C(=O)NCC(=O)N[C@@H](CO)C(=O)N[C@@H](CC(N)=O)C(=O)N[C@H](C(=O)N1CCC[C@H]1C(N)=O)[C@@H](C)O)C(C)C)[C@@H](C)O
B3: polypeptide derivative M22 (peptide)
peptide: {C18 diacid-γGlu}-ASQLSTAATQRLADFLRHFTDRDRDILPPTNVGSNTP-NH2
SMILES: CC[C@H](C)[C@H](NC(=O)[C@H](CC(=O)O)NC(=O)[C@H](CCCNC(=N)N)NC(=O)[C@H](CC(=O)O)NC(=O)[C@H](CCCNC(=N)N)NC(=O)[C@H](CC(=O)O)NC(=O)[C@@H](NC(=O)[C@H](Cc1ccccc1)NC(=O)[C@H](Cc1c[nH]cn1)NC(=O)[C@H](CCCNC(=N)N)NC(=O)[C@H](CC(C)C)NC(=O)[C@H](Cc1ccccc1)NC(=O)[C@H](CC(=O)O)NC(=O)[C@H](C)NC(=O)[C@H](CC(C)C)NC(=O)[C@H](CCCNC(=N)N)NC(=O)[C@H](CCC(N)=O)NC(=O)[C@@H](NC(=O)[C@H](C)NC(=O)[C@H](C)NC(=O)[C@@H](NC(=O)[C@H](CO)NC(=O)[C@H](CC(C)C)NC(=O)[C@H](CCC(N)=O)NC(=O)[C@H](CO)NC(=O)[C@H](C)NC(=O)CC[C@H](NC(=O)CCCCCCCCCCCCCCCCC(=O)O)C(=O)O)[C@@H](C)O)[C@@H](C)O)[C@@H](C)O)C(=O)N[C@@H](CC(C)C)C(=O)N1CCC[C@H]1C(=O)N1CCC[C@H]1C(=O)N[C@H](C(=O)N[C@@H](CC(N)=O)C(=O)N[C@H](C(=O)NCC(=O)N[C@@H](CO)C(=O)N[C@@H](CC(N)=O)C(=O)N[C@H](C(=O)N1CCC[C@H]1C(N)=O)[C@@H](C)O)C(C)C)[C@@H](C)O
B4: polypeptide derivative M18 (peptide)
peptide: {C20 diacid-βAsp-AEEA-AEEA}-ASQLSTAATQRLADFLRHFTDRDRDILPPTNVGSNTP-NH2
SMILES: CC[C@H](C)[C@H](NC(=O)[C@H](CC(=O)O)NC(=O)[C@H](CCCNC(=N)N)NC(=O)[C@H](CC(=O)O)NC(=O)[C@H](CCCNC(=N)N)NC(=O)[C@H](CC(=O)O)NC(=O)[C@@H](NC(=O)[C@H](Cc1ccccc1)NC(=O)[C@H](Cc1c[nH]cn1)NC(=O)[C@H](CCCNC(=N)N)NC(=O)[C@H](CC(C)C)NC(=O)[C@H](Cc1ccccc1)NC(=O)[C@H](CC(=O)O)NC(=O)[C@H](C)NC(=O)[C@H](CC(C)C)NC(=O)[C@H](CCCNC(=N)N)NC(=O)[C@H](CCC(N)=O)NC(=O)[C@@H](NC(=O)[C@H](C)NC(=O)[C@H](C)NC(=O)[C@@H](NC(=O)[C@H](CO)NC(=O)[C@H](CC(C)C)NC(=O)[C@H](CCC(N)=O)NC(=O)[C@H](CO)NC(=O)[C@H](C)NC(=O)COCCOCCNC(=O)COCCOCCNC(=O)C[C@H](NC(=O)CCCCCCCCCCCCCCCCCCC(=O)O)C(=O)O)[C@@H](C)O)[C@@H](C)O)[C@@H](C)O)C(=O)N[C@@H](CC(C)C)C(=O)N1CCC[C@H]1C(=O)N1CCC[C@H]1C(=O)N[C@H](C(=O)N[C@@H](CC(N)=O)C(=O)N[C@H](C(=O)NCC(=O)N[C@@H](CO)C(=O)N[C@@H](CC(N)=O)C(=O)N[C@H](C(=O)N1CCC[C@H]1C(N)=O)[C@@H](C)O)C(C)C)[C@@H](C)O
B5: polypeptide derivative M24 (peptide)
peptide: {C20 diacid-γGlu-AEEA-AEEA-AEEA-AEEA}-ASQLSTAATQRLADFLRHFTDRDRDILPPTNVGSNTP-NH2
SMILES: CC[C@H](C)[C@H](NC(=O)[C@H](CC(=O)O)NC(=O)[C@H](CCCNC(=N)N)NC(=O)[C@H](CC(=O)O)NC(=O)[C@H](CCCNC(=N)N)NC(=O)[C@H](CC(=O)O)NC(=O)[C@@H](NC(=O)[C@H](Cc1ccccc1)NC(=O)[C@H](Cc1c[nH]cn1)NC(=O)[C@H](CCCNC(=N)N)NC(=O)[C@H](CC(C)C)NC(=O)[C@H](Cc1ccccc1)NC(=O)[C@H](CC(=O)O)NC(=O)[C@H](C)NC(=O)[C@H](CC(C)C)NC(=O)[C@H](CCCNC(=N)N)NC(=O)[C@H](CCC(N)=O)NC(=O)[C@@H](NC(=O)[C@H](C)NC(=O)[C@H](C)NC(=O)[C@@H](NC(=O)[C@H](CO)NC(=O)[C@H](CC(C)C)NC(=O)[C@H](CCC(N)=O)NC(=O)[C@H](CO)NC(=O)[C@H](C)NC(=O)COCCOCCNC(=O)COCCOCCNC(=O)COCCOCCNC(=O)COCCOCCNC(=O)CC[C@H](NC(=O)CCCCCCCCCCCCCCCCCCC(=O)O)C(=O)O)[C@@H](C)O)[C@@H](C)O)[C@@H](C)O)C(=O)N[C@@H](CC(C)C)C(=O)N1CCC[C@H]1C(=O)N1CCC[C@H]1C(=O)N[C@H](C(=O)N[C@@H](CC(N)=O)C(=O)N[C@H](C(=O)NCC(=O)N[C@@H](CO)C(=O)N[C@@H](CC(N)=O)C(=O)N[C@H](C(=O)N1CCC[C@H]1C(N)=O)[C@@H](C)O)C(C)C)[C@@H](C)O

Starred links: 1 amine or outer side, 2 acyl side, 3 side chain; linkers in the order of their positions; H or OH if unused. Non-standard residues stand in square brackets, D forms with d. Primed or numbered codes have the meaning given here. *: point of attachment. C20 diacid = O=C(O)CCCCCCCCCCCCCCCCCCC(=O)*; C18 diacid = O=C(O)CCCCCCCCCCCCCCCCC(=O)*; C16 diacid = O=C(O)CCCCCCCCCCCCCCC(=O)*; γGlu = O=C(O)[C@H](CCC(=O)[*:2])N[*:1]; βAsp = O=C(O)[C@H](CC(=O)[*:2])N[*:1]; Inp′ = not defined here; Trx′ = not defined here; AEEA = NCCOCCOCC(=O)O

The test addresses T1, human amylin receptor (AMY3) on …. The experiment in a line: cell-based or functional assay.
As for B1, the “EC50/nM, CRE-luciferase reporter in amylin receptor/CRE-luc CHO cells” value (from here on “EC50/nM … in amylin receptor/CRE-luc CHO cells”) came out at 0.017 nM and the “Relative activity (the EC50 ratio of Cagrilintide to the compound)” value was determined as 182%.
The corresponding values for B2 are 0.036 nM and 80%.
The corresponding values for {C20 diacid-Inp′-AEEA-AEEA}-ASQLSTAATQRLADFLRHFTDRDRDILPPTNVGSNTP-NH2 [polypeptide derivative M21] are 0.023 nM and 126%.
With B3, the “EC50/nM … in amylin receptor/CRE-luc CHO cells” value was 0.016 nM and the “Relative activity (the EC50 ratio of Cagrilintide to the compound)” value was 198%.
The corresponding values for B4 are 0.026 nM and 110%.
For the molecule {C20 diacid-Trx′-AEEA-AEEA}-ASQLSTAATQRLADFLRHFTDRDRDILPPTNVGSNTP-NH2 (reading uncertain) [polypeptide derivative M20], the “EC50/nM … in amylin receptor/CRE-luc CHO cells” value was determined as 0.017 nM and the “Relative activity (the EC50 ratio of Cagrilintide to the compound)” value turned out to be 171%.
The corresponding values for B5 are 0.066 nM and 47%.
